The target of the assay is T1, 增强绿色荧光蛋白 (enhanced green fluorescent protein, EGFP) (Aequorea victoria (engineered mutant), UniProt P42212 1-238 = GFP, limits assumed).
T1 construct: also called EGFP蛋白
As to the kind of experiment: biolayer interferometry: nanobody coupled by EDC/s-NHS to AR2G probe, association 300 s, dissociation 120 s in PBS. Background: In BLI a coated tip is dipped into the sample, and binding shifts an interference pattern.

B1: 高亲和力增强绿色荧光蛋白纳米抗体 (anti-EGFP nanobody), clone 4-28 (VHH)
VHH: QVQLVESGGGLVQPGGSLRLSCAASGSRFSIHTMGWYRQAPGKQRELVATITWGGRQNYADSVKGRFTINRDNDKNTVDLQMDSLKPEDTAVYYCNVRPISNGPDYWGQGTQVTVSS
notes: Alpaca VHH selected by phage display; The purified protein was about 20 kD by SDS-PAGE; also called 抗EGFP纳米抗体; 编号4-28; not shown: Expressed from PET25b in E. coli Rosetta and purified on a nickel column
By Kd is commonly meant the equilibrium constant for the complex coming apart. Consider B1, for which the Kd amounted to 0.0967 nM.

The record behind these values is patent publication CN112010969A (UNIV NANCHANG, dated 2020).
